B1: YANG-1111 (antibody, V domains shown)
VH: EVQLVESGGGLIQPGGSLRLSCAASGFTFSSYSINWVRQAPGKGLEWVSFISGSSTTIYYADSVKGRFTISRDSAKNSLYLQMNSLRDEDTAVYYCARGLRSSIAPRPDYFDSWGQGILVTVSS
VL: SYVLTQPPSVSVAPGKTARITCGGNNIGSKGVHWYQQKPGQAPVLVIYYDSDRPSGIPERFSGSNSGNTATLTISRVEAGDEADYSCQVWDSSSDHPVFGGGTKLTVQ
B2: YANG-1108 (antibody, V domains shown)
VH: QVQLVESGGGVVHPGRSLRLSCVVSGFTFSGYGMYWVRQAPGKGLEWVAVISKDGSDKYYADSVKGRFTISRDNSKNTLNLQMNSLRAEDTAVFYCAKERTFQGSGSYYNNYFYYGMDVWGQGTTVTVSS
VL: AIQLTQSPSSLSASVGDRVTITCRASQGISSALAWYQQKPGKAPNLLIYDASSLESGVPSRFSGSGFGTDFTLTINSLQPEDFASYYCQQFKSYPLTFGGGTKVEIK
B3: YANG-1106 (antibody, V domains shown)
VH: EVQLVESGGGLIQPGGSLRLSCAASEFIVSRNYMSWVRQAPGKGLEWVSVIYSGGSTFYADSVRGRFTISRDNSKNTLYLQMNSLRAEDTAVYYCARDYGDQYFDYWGQGTLVTVSS
VL: EMVMTQSPATLSVSPGEKATLSCRASQTVSTNLAWYQQKPGQSPRLLIYGASTRATGIPARFSGSGSGTEFTLTISSLQSEDFAIYYCQQYVDWPRTFGQGTTVEIK
B4: YANG-1112 (antibody, V domains shown)
VH: QITLKESGPTLVKPTQTLTLTCTFSGFSLSTGGVAVGWIRQPPGKALEWLAIIYWDDDKRYSPSLKSRLTITKDTSKNQVVLTMTNMDPVDTATYYCAHWGKDSFDIWGQGTMVTVSS
VL: SYELTQPPSVSVSPGQTARITCSGDALPRKYAYWYQQKSGQAPVLVIYEDNNRPSGIPERFSGSSSGTTATLTVSGAQVEDEADYYCYSTDTSGYVVFGGGTKLTVL
B5: YANG-1110 (antibody, V domains shown)
VH: QVQLAESGGGVVQPGRSLRLSCVVSGFTFSNYGMHWVRQAPGKGLEWVVFISNDGSNEDFVDSVKGRFTISRDNSKNTLYLQMNSLRAEDTAVYYCAKGGYFYGSGNYYYYYGMDVWGQGTTVTVSS
VL: QPVLTQSSSASASLGSSVKLTCTLSSVHSNHIIAWHQQQPGKAPRYLMKLEGSGRYSKGSGVPDRFSGSSSEADRYLTISNLQSEDEADYYCETWDNNTYVFGSGTKVTVL
B6: YANG-1103 (antibody, V domains shown)
VH: EVQMVESGGGLIQPGGSLRLSCAASGLTVSSNYMSWVRQAPGKGLEWVSVIYSGGSTFYADSVKDRFTISRDNSKNTLYLQMNSLRAEDTAVYYCARENWNYVFDCWGQGTLVTVSS
VL: DIQLTQSPSFLSASVGDRVTITCWASQGISSYLAWYQQKPGKAPKLLIYAASTLQSGVPSRFSGSGSGTEFTLTISSLQPEDFATYYCQQLNSHPIIFGQGTRLEIK
B7: YANG-1105 (antibody, V domains shown)
VH: EVQVVESGGGLIQPGGSLRLSCAASGITVSRNYMNWVRQAPGKGLEWVSVIYSGGSTFYADSVKGRFTISRDNSKNTLYLQMNSLRADDTGVYYCAREGYGMDVWGQGTTVTVSS
VL: DIQLTQSPSFLSASVGDRVTITCWASQGISSYLAWYQQKPGKAPKLLIYSASTLQSGVPSRFSGSGSGTEFTLTINSLQPEDFATYYCQQLNSHPCSFGQGTKLEIK
B8: YANG-1109 (antibody, V domains shown)
VH: EVQLVESGGGLIQPGGSLRLSCGVSGLTVSRNYMNWVRQAPGKGLEWVSVIYSGGSTFYADSVKGRFTISRDNSKNTLYLQMISLRAEDSGVYYCAREGFGMDVWGQGTTVTVSS
VL: DIQLTQSPSFLSASVGDRVTITCWASQGISNYLAWYQQKPGKAPKLLIYSASTLQSGVPSRFSGSGSGTEFTLTISNLQPADIATYYCQLLNSHPCSFGQGTKLEIK
B9: YANG-1107 (antibody, V domains shown)
VH: EVQMVESGGGLIQSGGSLRLSCAASGLSVSSNYMSWVRQAPGKGLEWVAVIYSGGSIFYADSVKDRFTISRDNSKNTLYLQMNSLRAEDTAVYYCARENWNYVFDCWGQGTLVTVSS
VL: DIQLTQSPSFLSASVGDRVTITCWASQGISTYLAWYQQKPGKAPKLLIYAASTLQSGVPSRFSGSGSGTEFTLTISSLQPEDFATYYCQQLSSHPIIFGQGTRLEIK

Each binder was assayed against T1, RBD domain of the spike protein of SARS-CoV-2 virus (Acro Biosystems SPD-C52H3) (SARS-CoV-2, UniProt P0DTC2 319-537) (assay: Affinity (SPR) by Octet; antigen not named, taken from the epitope column).
T1 construct: domain: RBD domain
Binder B1 has a Kd of less than 0.1 nM.
B2 was tested, and the Kd was less than 0.1 nM.
B3 gave a Kd of less than 0.1 nM.
With B4 the Kd was less than 0.1 nM.
Binder B5 has a Kd of less than 0.1 nM.
For B6, the Kd was less than 0.1 nM.
B7 gave a Kd of less than 0.1 nM.
Binder B8 has a Kd of less than 0.1 nM.
With B9 the Kd was less than 0.1 nM.
